Measurements published in patent publication US6846645B2, “Multiplexed enzymatic assays” (Aclara Biosciences, Inc., priority 2000, dated 2005).

Key:
Receptor II kinase [1] = assay: Screening assay for competitive inhibitors: competition between insulin β chain and EGF, monitored by receptor II kinase activity; assay type: biochemical
Protocol: Before adding kinase substrate, incubate the mixture for 5 min to activate receptor II kinase by binding to insulin β. The incubation was done at room temperature for 30 min. Either 10 μL of 200 mM EDTA is added or the sample is frozen to stop the reaction before analysis. For the frozen sample, analysis was performed immediately after thawing the samples. Analysis was done on a modified Henry chip with 5 mm effective separation length. The injection was performed by applying 400 V at well #2 for 45 s while grounding other wells. The separation conditions are: 0 V for Well #1, 400 V for well #2 and 4, 700 V for well #3.

Receptor II kinase [2] = assay: Receptor II assay: ligand enhancement of receptor II kinase activity; assay type: biochemical; conditions: saturating (high) ligand concentrations, 25 μM substrate, fixed amount of receptor II
Protocol: Before adding kinase substrate, incubate the mixture for 5 min to activate receptor II kinase by binding to insulin β. The incubation was done at room temperature for 30 min. Either 10 μL of 200 mM EDTA is added or the sample is frozen to stop the reaction before analysis. For the frozen sample, analysis was performed immediately after thawing the samples.
Analysis was done on a modified Henry chip with 5 mm effective separation length. The injection was performed by applying 400 V at well #2 for 45 s while grounding other wells. The separation conditions are: 0 V for Well #1, 400 V for well #2 and 4, 700 V for well #3.
As another example, receptor II (an insulin-related receptor) was studied in connection with insulin-like growth factor (IGF). A significant enhancement (>4 fold) in receptor II kinase activity was observed. Other ligands tested include insulin, insulin α and β chain. Both insulin and insulin β chain stimulated this receptor kinase activity by as much as 20 fold when a high concentration was used (Table 2). […] For this experiment, 25 μM substrate was used with a fixed amount of receptor II and various amounts of ligands to ensure a saturated binding between receptor and ligand.

For Epidermal growth factor [EGF], the “extent of competition with activating ligand” value (Receptor II kinase [1]; higher insulin β concentration (15 μM), FIG. 14A) was “did not show complete competition”, the “extent of competition with activating ligand” value (Receptor II kinase [1]; lower insulin β chain concentration of 3 μM, FIG. 14B) was “near complete competition” and the IC50 (Receptor II kinase [1]; read-out: IC50 of EGF competing with insulin β chain activation of receptor II kinase, insulin β chain at 3 μM and 15 μM, fixed receptor concentration) was 200 to 300 nM.

In the case of Insulin α chain, the “Receptor II Kinase Activity Enhancement (fold)” value (Receptor II kinase [2]) is reported as “˜3 fold” and the “Receptor II Kinase Activity Enhancement (fold)” value (Receptor II kinase [2]; listed as Insulin α chain) is reported as “about 3 fold”.

Insulin β chain was tested, and the “Receptor II Kinase Activity Enhancement (fold)” value (Receptor II kinase [2]) was greater than 20 fold.

For insulin, the “Receptor II Kinase Activity Enhancement (fold)” value (Receptor II kinase [2]) was greater than 20 fold.
